The target of experiment [1] is human CD3 (human). As to the kind of experiment: method not given.
For experiment [2], the target named is human CD3 (human). The experiment can be described thus: SPR, BiaCore method of WO2018208864A1. In general terms: Surface plasmon resonance follows binding to a sensor surface in real time, without labels.
Experiment [3] concerns the target human CD3 (human). As to the kind of experiment: BLI, Octet method of WO2018208864A1. For orientation: In BLI a coated tip is dipped into the sample, and binding shifts an interference pattern.
Experiment [4] has as its target T1, dimeric CD19 extracellular domain fused with human IgG1 Fc (human, UniProt P15391 20-291, limits assumed).
T1 construct: extracellular domain; also called dimeric CD19 protein; not shown: human IgG1 Fc
T1 sequence (looked up): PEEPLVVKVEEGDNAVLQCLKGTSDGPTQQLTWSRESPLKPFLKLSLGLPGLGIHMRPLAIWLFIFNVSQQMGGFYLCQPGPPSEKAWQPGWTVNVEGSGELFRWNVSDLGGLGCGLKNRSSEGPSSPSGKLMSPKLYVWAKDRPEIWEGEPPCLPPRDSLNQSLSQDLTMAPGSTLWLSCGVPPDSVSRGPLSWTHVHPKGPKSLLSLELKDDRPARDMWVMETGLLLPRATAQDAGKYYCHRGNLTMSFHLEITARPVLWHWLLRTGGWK
As to the kind of experiment: ForteBio instrument (called SPR in the text), dimeric CD19 extracellular domain-human IgG1 Fc; dimeric CD19 extracellular domain fused with human IgG1 Fc. As for the experimental part:
(§1) As noted above, some of the constructs produced contained an anti-CD19 scFv having the amino acid sequence set forth in SEQ ID NO: 9 or 18. The binding affinity of the two CD19 binding domains to CD19 were measured by SPR using a monomeric CD19 extracellular domain and a dimeric CD19 extracellular domain fused with human IgG1 Fc. Binding kinetic parameters were measured using a ForteBio instrument generally as previously described (see, Estep et al. (2013) MAbs, 5(2): 270-78).

The target in experiment [5] is T2, monomeric CD19 extracellular domain (UniProt P15391 20-291, limits assumed).
T2 construct: extracellular domain; also called monomeric CD19 protein
T2 sequence (looked up): T1 sequence (looked up)
The experiment can be described thus: ForteBio instrument (called SPR in the text), monomeric CD19 extracellular domain; monomeric CD19 protein. The procedure: as §1

In a further experiment the target is T3, human CD19 (human, UniProt P15391 20-291, biotinylated in the Biacore assay of Table 11).
T3 construct: also called isolated CD19; Human CD19 Protein
T3 sequence (looked up): T1 sequence (looked up)
The experiment can be described thus: SPR Biacore 8K, captured biotinylated CD19, scFv with disulfide bond as analyte. As for the experimental part:
Additional kinetic analysis of the anti-CD19 VL-VH scFvs, with or without a disulfide bond introduced by Cys substitutions at position 44 of VH and position 100 of VL, was conducted by surface plasmon resonance (SPR). The scFv proteins were serially diluted and assessed at 25° C. in a HBS-EP+ running buffer system (10 mM HEPES pH 7.4, 150 mM NaCl, 3 mM EDTA, 0.05% Surfactant P20) using a Biacore 8K optical biosensor (Global Life Sciences Solutions USA, Marlborough, Mass.). The sample compartment was maintained at 10° C. for the duration of each experiment.
Each experiment cycle began with an injection (500 s at 2 μL/min) over flow cells 1 and 2 of a 1:20 solution of biotin CAPture reagent (Global Life Sciences Solutions USA) in running buffer. This was followed by an injection (300 s at 4.0 μL/min) of biotinylated CD-19 (40 nM) overflow cell 2. Upon capture of CD19 to the sensor surface, test scFvs (16.2 to 0.067 nM, 3-fold dilution in running buffer) was injected (300 s at 30 uL/min) over flow cells 1 and 2. The dissociation of the scFvs was monitored for a duration of 2564 s. Finally, an injection (90 s at 10 μL/min) of regeneration solution (6 M Guanidine-HCl in 0.25 M NaOH) overflow cells 1 and 2 was used to prepare the sensor surface for another cycle.

The next experiment addresses protein A (UniProt P38507 37-327). As to the kind of experiment: Octet HTX (ForteBio), HCAb on AHC sensor; legend: no binding was detected under the conditions of this assay.
Experiment [6] concerns the target T4, mouse serum albumin (mouse, UniProt P07724 25-608).
T4 construct: also called MSA
As to the kind of experiment: ratio of the Octet KD for mouse serum albumin to that for human serum albumin.

The next experiment addresses cynomolgus serum albumin (cynomolgus, UniProt A2V9Z4 25-608). The experiment can be described thus: Octet HTX (ForteBio), HCAb on AHC sensor, 1:1 fit.
A further experiment deals with T5, human serum albumin (human, UniProt P02768 25-609).
T5 construct: also called HSA
As to the kind of experiment: Octet HTX (ForteBio), HCAb on AHC sensor, 1:1 fit.

The target in experiment [7] is T4, mouse serum albumin. As to the kind of experiment: Octet HTX (ForteBio), HCAb on AHC sensor, 1:1 fit.

Numbering of substitutions follows the chain as printed.

human CD3 (human), sequence (chain, as listed by the source): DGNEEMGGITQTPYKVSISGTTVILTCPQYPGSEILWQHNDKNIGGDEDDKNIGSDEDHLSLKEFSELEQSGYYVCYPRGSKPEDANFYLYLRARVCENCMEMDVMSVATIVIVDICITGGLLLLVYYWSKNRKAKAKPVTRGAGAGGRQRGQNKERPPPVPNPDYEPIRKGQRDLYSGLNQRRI
T4 sequence (P07724 25-608 limits assumed): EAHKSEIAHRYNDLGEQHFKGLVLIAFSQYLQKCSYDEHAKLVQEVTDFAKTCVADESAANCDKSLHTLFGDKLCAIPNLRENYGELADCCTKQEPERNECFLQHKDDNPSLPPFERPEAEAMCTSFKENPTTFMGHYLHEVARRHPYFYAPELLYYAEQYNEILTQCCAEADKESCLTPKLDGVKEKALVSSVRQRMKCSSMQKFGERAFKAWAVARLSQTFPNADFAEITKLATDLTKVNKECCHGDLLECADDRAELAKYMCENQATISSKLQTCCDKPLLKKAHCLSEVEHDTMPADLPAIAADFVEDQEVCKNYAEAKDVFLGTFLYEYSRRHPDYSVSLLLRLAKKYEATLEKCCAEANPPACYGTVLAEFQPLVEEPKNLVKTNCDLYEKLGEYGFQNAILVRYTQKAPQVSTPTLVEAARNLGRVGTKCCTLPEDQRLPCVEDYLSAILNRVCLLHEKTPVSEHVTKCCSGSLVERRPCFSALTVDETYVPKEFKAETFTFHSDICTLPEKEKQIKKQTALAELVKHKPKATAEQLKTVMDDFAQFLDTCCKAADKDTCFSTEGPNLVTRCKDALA
cynomolgus serum albumin, sequence (A2V9Z4 25-608 limits assumed): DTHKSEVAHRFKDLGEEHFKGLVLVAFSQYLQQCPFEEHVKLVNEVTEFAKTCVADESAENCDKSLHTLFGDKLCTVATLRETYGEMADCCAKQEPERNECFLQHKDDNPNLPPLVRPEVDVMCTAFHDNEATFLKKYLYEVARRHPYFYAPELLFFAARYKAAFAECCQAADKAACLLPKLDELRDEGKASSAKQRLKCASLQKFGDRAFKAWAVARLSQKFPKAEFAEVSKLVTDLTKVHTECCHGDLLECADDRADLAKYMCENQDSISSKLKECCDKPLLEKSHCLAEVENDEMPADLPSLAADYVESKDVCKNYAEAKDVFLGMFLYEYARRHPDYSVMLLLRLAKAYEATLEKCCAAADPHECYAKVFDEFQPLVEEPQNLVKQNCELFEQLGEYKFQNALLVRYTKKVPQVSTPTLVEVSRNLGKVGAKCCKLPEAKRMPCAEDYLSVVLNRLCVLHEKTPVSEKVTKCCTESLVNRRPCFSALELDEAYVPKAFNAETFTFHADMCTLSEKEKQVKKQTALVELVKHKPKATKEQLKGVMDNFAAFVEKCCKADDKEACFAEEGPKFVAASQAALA

B1: CNG-CD3-1 scFv construct (scFv)
scFv: DIVMTQSPDSLAVSLGERATINCKSSQSLLNARTGKNYLAWYQQKPGQPPKLLIYWASTRESGVPDRFSGSGSGTDFTLTISSLQAEDVAVYYCKQSYSRRTFGGGTKVEIKGGGGSGGGGSGGGGSGGGGSQVQLVQSGAEVKKPGASVKVSCKASGFNIKDYYMHWVRQAPGQRLEWMGWIDLENANTIYDAKFQGRVTITRDTSASTAYMELSSLRSEDTAVYYCARDAYGRYFYDVWGQGTLVTVSS
In the case of B1, the Kd turned out to be 1.6 nM in the experiment with human CD3 [1], 1.9 nM with human CD3 [2] and 4.4 nM in the experiment with human CD3 [3].

B2: CNG-CD3-2 scFv construct (scFv)
scFv: B1 scFv with A232Q
Consider B2, for which the Kd with human CD3 [2] worked out at 16 nM; with human CD3 [3], 27 nM.

B3: CNG-CD3-3 scFv construct (scFv)
scFv: B1 scFv with R100L, N187E, A188G
Consider B3, for which the Kd in the experiment with human CD3 [2] is 26 nM; in the experiment with human CD3 [3], 54 nM.

B4: SEQ ID NO 9 (scFv)
scFv: QVQLVQSGAEVKKPGASVKVSCKASGYTFTDYIMHWVRQAPGQGLEWMGYINPYNDGSKYTEKFQGRVTMTSDTSISTAYMELSRLRSDDTAVYYCARGTYYYGPQLFDYWGQGTTVTVSSGGGGSGGGGSGGGGSDIVMTQTPLSLSVTPGQPASISCKSSQSLETSTGTTYLNWYLQKPGQSPQLLIYRVSKRFSGVPDRFSGSGSGTDFTLKISRVEAEDVGVYYCLQLLEDPYTFGQGTKLEIK
notes: its limits are my reading; also called anti-CD19 scFv of tAb0027 to tAb0032
On to B4, for which the Kd came to 5 nM in experiment [4] and 7 nM in experiment [5].

B5: CNG-CD19-707 VL-VH scFv with disulfide bond (scFv)
chain: EIVLTQSPATLSLSPGERATLSCSASSSVGYMHWYQQKPGQAPRLLIYDTSKLASGIPARFSGSGSGTDFTLTISSLEPEDFAVYYCFQGSVYPFTFGCGTKLEIKGGGGSGGGGSGGGGSQVQLQESGPGLVKPSQTLSLTCTVSGGSISTSTMGVGWIRQHPGKCLEWIGFIWWDDDKRYNPNLKSRVTMSVDTSKNQFSLKLSSVTAADTAVYYCARMELWSYYFDPWGQGTLVTVSS
In the experiment with human CD19, B5 came in with a Kd of 0.0117 nM and a koff of 2e-05 s⁻¹.

B6: CNG-CD19-710 VL-VH scFv with disulfide bond (scFv)
chain: B5 chain with V29F, G30S, G148V, T154S, F173H, I174A, N185A, M192I
In the experiment with human CD19, B6 gave an equilibrium dissociation constant (Kd) of 0.0213 nM and an off-rate constant (koff) of 2.54e-05 s⁻¹.

B7: SEQ ID NO 18 (scFv)
scFv: QVQLQESGPGLVKPSQTLSLTCTVSGGSISTSGMGVGWIRQHPGKGLEWIGHIWWDDDKRYNPALKSRVTISVDTSKNQFSLKLSSVTAADTAVYYCARMELWSYYFDYWGQGTLVTVSSGGGGSGGGGSGGGGSEIVLTQSPATLSLSPGERATLSCSASSSVSYMHWYQQKPGQAPRLLIYDTSKLASGIPARFSGSGSGTDFTLTISSLEPEDFAVYYCFQGSVYPFTFGQGTKLEIKR
notes: its limits are my reading; also called anti-CD19 scFv of tAb0033 to tAb0038
In the case of B7, the Kd stood at 15 nM in [4] and 11 nM in experiment [5].

B8: CNG-HSA-106 (VHH)
VHH: KVQLLESGGGLVQPGGSLRLSCAASGFTFSSFGMSWVRQAPGKGLEWVSSISGSGSDTLYADSVRGRFTISRDNSKNTLYLQMDSLRAEDTAVYYCTIGGSRSISSQGTLVTVSS
Turning to B8, the binding result with protein A was “no binding”. For the same molecule, the “Ratio of MSA-KD to HSA-KD” value with mouse serum albumin [6] is 3.41. In addition, the Kd came to 14.4 nM with cynomolgus serum albumin, 17 nM with human serum albumin and 57.8 nM with mouse serum albumin [7]. The koff was determined as 0.00238 s⁻¹ with cynomolgus serum albumin, 0.00297 s⁻¹ with human serum albumin and 0.0124 s⁻¹ with mouse serum albumin [7].

What is called Kd is the concentration at which binding is half-saturated. Low values mean tighter binding, high ones weaker binding. Usually koff stands for the first-order rate constant of dissociation. Low values mean a long-lived complex, high ones a short-lived complex.

For the origin of these results see patent US20230037815A1 (CULLINAN THERAPEUTICS, published 2023).
